T1: recombinant human Plexin B1 with a 6X His tag at C-terminus (human, UniProt O43157 20-1490)
T1 construct: Plexin B1, human; Only the molecular weight (66 kDa) is printed; it must be a fragment of the extracellular part, limits unknown; also called rhPlexin B1; rhPlexin B1-His; source: bought: GenScript; not shown: His6, C-terminal, kept
T1 sequence (looked up): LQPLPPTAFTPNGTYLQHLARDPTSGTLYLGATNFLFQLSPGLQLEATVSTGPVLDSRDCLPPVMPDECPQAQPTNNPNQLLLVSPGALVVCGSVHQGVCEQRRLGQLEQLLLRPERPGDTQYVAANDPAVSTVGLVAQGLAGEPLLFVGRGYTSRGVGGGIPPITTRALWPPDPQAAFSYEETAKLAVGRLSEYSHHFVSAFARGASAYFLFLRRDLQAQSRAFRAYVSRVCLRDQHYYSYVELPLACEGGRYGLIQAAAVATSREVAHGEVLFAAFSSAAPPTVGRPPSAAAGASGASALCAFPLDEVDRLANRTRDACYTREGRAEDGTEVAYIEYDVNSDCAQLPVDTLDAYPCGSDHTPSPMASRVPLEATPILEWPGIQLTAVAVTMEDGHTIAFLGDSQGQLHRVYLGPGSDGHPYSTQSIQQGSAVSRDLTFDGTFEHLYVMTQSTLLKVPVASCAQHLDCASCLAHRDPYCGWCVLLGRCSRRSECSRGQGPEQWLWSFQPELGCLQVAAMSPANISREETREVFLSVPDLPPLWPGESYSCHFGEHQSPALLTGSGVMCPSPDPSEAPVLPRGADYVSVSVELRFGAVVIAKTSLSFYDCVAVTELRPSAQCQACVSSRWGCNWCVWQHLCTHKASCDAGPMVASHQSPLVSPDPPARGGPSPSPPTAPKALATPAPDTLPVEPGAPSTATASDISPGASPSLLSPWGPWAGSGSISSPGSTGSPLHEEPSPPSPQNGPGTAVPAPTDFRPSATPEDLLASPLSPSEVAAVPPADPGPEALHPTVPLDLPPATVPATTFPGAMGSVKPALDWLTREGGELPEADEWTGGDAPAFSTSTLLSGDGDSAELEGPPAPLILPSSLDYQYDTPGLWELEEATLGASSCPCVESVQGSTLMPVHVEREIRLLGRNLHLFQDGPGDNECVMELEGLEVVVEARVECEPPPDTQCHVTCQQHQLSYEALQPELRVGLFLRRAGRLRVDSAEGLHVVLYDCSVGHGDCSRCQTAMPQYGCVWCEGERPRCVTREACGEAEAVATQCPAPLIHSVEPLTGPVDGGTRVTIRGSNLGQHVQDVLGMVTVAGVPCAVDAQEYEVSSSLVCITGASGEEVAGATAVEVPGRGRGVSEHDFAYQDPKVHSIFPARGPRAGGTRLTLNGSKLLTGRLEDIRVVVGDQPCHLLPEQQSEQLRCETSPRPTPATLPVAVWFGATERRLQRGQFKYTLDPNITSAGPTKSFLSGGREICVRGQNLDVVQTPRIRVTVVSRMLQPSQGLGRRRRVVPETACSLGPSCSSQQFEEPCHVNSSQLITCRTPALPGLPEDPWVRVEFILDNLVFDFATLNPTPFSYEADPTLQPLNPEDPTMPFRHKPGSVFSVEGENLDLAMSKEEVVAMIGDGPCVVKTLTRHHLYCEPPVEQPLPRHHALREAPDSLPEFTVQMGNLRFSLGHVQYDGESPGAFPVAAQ


Legend:
Plexin B1 (Homo sapiens) [1] = biological target: Plexin B1 (Homo sapiens) (UniProt O43157); experiment: SPR; settings: cited from earlier work
Plexin D1 = Plexin D1 (UniProt Q9Y4D7); experiment: SPR; settings: cited from earlier work
Plexin B1 (Homo sapiens) [2] = biological target: Plexin B1 (Homo sapiens) (UniProt O43157); experiment: cell-based ELISA; settings: cited from earlier work
[3] = biological target: recombinant human Plexin B1 with a 6X His tag at C-terminus (human) (UniProt O43157); experiment: ELISA; direct ligand-receptor (LRA) ELISA; Plexin B1 (8-10 ug/mL) immobilised on Immulon 2 plates overnight, Sema4 in solution in varying doses from 2 ug/mL; detection by HRP-labelled Abs to tags; fit 'One site-specific binding with Hill slope'
NRP1 = NRP1 (UniProt O14786); experiment: ELISA; LRA ELISA of Sema4A and NRP1 (Supplemental Figure S2)
[4] = biological target: T1, recombinant human Plexin B1 with a 6X …; experiment: ELISA; reverse LRA ELISA; Sema4 (2 ug/mL) coated on Immulon 2 plates overnight at 4 C in 0.1 M sodium carbonate-bicarbonate buffer, rhPlexin B1 in solution in varying doses from 10 ug/mL; settings: both partners purified
[5] = biological target: T1, recombinant human Plexin B1 with a 6X …; experiment: ELISA; direct LRA ELISA; Plexin B1-His (10 ug/mL) captured on HIS-Select nickel-coated microplates in Tris buffer overnight, Sema4 in solution in varying doses from 2 ug/mL; settings: both partners purified
[6] = biological target: soluble recombinant human Sema4A (GST- or Fc-tagged, as used in Figures 2 and 3) (human) (UniProt Q9H3S1); experiment: ELISA; reverse LRA ELISA; Sema4 (2 ug/mL) coated on Immulon 2 plates overnight at 4 C in 0.1 M sodium carbonate-bicarbonate buffer, rhPlexin B1 in solution in varying doses from 10 ug/mL

Sequence of Plexin D1 (Q9Y4D7 47-1271): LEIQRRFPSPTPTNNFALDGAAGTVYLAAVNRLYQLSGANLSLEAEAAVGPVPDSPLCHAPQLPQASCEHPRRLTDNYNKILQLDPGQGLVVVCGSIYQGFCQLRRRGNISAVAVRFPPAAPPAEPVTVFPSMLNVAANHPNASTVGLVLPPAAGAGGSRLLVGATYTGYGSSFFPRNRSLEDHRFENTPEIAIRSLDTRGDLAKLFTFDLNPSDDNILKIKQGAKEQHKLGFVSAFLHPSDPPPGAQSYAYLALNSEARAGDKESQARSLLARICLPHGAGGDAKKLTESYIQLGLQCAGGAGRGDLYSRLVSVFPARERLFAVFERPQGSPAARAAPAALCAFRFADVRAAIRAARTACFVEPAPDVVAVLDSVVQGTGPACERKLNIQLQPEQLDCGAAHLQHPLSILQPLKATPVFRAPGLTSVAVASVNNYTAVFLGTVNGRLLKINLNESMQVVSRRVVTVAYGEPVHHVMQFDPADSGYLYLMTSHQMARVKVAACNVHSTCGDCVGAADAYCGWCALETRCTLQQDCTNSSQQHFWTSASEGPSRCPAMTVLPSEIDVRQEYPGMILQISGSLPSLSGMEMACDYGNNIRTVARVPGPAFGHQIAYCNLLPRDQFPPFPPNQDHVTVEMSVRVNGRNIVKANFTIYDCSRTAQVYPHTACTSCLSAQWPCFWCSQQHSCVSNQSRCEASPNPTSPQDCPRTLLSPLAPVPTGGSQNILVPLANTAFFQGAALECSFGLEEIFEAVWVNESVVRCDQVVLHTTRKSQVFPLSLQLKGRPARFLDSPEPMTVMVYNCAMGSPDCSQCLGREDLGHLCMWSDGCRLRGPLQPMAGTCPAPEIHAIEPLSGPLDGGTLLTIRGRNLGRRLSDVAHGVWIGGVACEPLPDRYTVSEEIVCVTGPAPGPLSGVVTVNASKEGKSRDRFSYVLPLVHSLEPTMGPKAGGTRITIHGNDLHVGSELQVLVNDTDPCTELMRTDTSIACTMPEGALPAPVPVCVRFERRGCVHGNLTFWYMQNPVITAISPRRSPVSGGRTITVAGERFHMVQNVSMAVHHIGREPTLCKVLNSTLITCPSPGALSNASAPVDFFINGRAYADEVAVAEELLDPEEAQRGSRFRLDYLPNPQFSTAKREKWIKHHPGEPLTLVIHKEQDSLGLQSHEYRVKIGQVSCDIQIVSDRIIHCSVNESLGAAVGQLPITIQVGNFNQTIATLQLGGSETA
Sequence of Sema4D (Q92854 22-734): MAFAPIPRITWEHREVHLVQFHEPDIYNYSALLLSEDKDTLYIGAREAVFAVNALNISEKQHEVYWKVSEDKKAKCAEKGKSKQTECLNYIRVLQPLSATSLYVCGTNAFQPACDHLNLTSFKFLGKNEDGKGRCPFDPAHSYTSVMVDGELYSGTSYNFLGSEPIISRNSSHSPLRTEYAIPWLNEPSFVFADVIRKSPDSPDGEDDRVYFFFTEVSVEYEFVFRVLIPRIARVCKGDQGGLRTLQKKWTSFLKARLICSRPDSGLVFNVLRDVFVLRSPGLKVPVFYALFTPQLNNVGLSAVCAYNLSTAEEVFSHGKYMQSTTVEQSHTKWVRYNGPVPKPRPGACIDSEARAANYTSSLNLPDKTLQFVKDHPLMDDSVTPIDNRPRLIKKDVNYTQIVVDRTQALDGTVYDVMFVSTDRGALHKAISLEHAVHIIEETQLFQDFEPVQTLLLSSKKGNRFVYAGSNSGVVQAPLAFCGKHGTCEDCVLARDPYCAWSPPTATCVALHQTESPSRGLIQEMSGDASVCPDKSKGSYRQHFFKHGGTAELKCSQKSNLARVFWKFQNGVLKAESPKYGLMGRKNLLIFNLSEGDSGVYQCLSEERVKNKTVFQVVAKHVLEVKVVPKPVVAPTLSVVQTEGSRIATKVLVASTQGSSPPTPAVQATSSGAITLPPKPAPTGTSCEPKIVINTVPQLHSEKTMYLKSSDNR
Sequence of Sema4D Sema domain (Q92854 22-500): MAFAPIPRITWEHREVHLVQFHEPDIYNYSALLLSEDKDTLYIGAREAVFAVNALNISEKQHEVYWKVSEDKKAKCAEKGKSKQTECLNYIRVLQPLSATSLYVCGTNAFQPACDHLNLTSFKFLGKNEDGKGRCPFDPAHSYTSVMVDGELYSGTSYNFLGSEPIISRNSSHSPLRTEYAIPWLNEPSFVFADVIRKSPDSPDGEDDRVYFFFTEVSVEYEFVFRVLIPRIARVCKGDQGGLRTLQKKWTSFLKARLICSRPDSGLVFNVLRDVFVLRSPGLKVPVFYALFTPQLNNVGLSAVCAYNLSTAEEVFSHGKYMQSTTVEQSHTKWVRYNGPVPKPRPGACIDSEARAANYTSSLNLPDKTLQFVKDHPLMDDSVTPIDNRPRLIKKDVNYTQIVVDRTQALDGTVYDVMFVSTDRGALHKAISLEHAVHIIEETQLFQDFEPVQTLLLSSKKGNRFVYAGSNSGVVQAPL
Sequence of NRP1 (O14786 22-856): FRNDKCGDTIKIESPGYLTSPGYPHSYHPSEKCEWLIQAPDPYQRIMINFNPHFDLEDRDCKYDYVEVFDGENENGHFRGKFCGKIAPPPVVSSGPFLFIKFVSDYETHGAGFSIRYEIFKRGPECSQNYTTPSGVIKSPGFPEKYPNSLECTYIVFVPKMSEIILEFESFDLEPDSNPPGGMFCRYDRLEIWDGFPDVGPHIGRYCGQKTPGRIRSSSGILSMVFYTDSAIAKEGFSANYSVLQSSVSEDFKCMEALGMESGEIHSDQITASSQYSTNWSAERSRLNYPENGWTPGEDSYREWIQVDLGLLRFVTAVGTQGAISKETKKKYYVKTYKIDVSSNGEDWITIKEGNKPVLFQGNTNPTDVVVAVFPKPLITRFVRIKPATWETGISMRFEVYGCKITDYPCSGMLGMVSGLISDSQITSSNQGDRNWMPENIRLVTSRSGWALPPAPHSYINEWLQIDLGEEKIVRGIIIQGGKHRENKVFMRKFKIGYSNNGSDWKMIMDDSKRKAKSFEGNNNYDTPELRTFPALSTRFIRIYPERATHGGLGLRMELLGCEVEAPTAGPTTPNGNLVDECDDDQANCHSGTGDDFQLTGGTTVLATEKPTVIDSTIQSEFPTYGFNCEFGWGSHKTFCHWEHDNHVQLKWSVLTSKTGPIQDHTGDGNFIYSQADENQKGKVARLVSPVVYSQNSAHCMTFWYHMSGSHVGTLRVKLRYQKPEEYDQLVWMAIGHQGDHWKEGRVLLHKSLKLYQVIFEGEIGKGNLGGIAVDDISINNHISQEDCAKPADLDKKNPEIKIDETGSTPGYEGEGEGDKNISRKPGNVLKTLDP

Kd [4] [µM] | Kd [5] [µM] | Molecule | further results
– | – | Sema4D Sema domain (from UniProt Q92854) | Kd (Plexin B1 (Homo sapiens) [1]): 5500 µM
– | – | Sema4A (from UniProt Q9H3S1) | Kd (Plexin D1): 0.00872 µM
– | – | Sema4D (from UniProt Q92854) | Kd (Plexin B1 (Homo sapiens) [2]): 0.0009 µM
– | – | soluble recombinant human Sema4A (GST- or Fc-tagged, as used in Figures 2 and 3) (from UniProt Q9H3S1 33-683) (ligand) | Kd [3]: 0.0199 µM; Kd (NRP1): 0.0283 µM
0.0025 | 0.00255 | WT rhSema4A-Fc (GenScript) (Fc fusion, human, UniProt Q9H3S1 33-683, looked up, Semaphorin 4A, human; also called WT Sema4A; WT Sema4A-Fc; source: bought: GenScript) GGGQGPMPRVRYYAGDERRALSFFHQKGLQDFDTLLLSGDGNTLYVGAREAILALDIQDPGVPRLKNMIPWPASDRKKSECAFKKKSNETQCFNFIRVLVSYNVTHLYTCGTFAFSPACTFIELQDSYLLPISEDKVMEGKGQSPFDPAHKHTAVLVDGMLYSGTMNNFLGSEPILMRTLGSQPVLKTDNFLRWLHHDASFVAAIPSTQVVYFFFEETASEFDFFERLHTSRVARVCKNDVGGEKLLQKKWTTFLKAQLLCTQPGQLPFNVIRHAVLLPADSPTAPHIYAVFTSQWQVGGTRSSAVCAFSLLDIERVFKGKYKELNKETSRWTTYRGPETNPRPGSCSVGPSSDKALTFMKDHFLMDEQVVGTPLLVKSGVEYTRLAVETAQGLDGHSHLVMYLGTTTGSLHKAVVSGDSSAHLVEEIQLFPDPEPVRNLQLAPTQGAVFVGFSGGVWRVPRANCSVYESCVDCVLARDPHCAWDPESRTCCLLSAPNLNSWKQDMERGNPEWACASGPMSRSLRPQSRPQIIKEVLAVPNSILELPCPHLSALASYYWSHGPAAVPEASSTVYNGSLLLIVQDGVGGLYQCWATENGFSYPVISYWVDSQDQTLALDPELAGIPREHVKVPLTRVSGGAALAAQQSYWPH | –
0.0017 | 0.00419 | M198A rhSema4A-Fc (Fc fusion, human, UniProt Q9H3S1 33-683, looked up, Semaphorin 4A, human; as the WT Sema4A-Fc of GenScript with M198A; Similar molecular size as the WT Sema4A-Fc protein prepared similarly; also called Sema4A-M198A; Mu M198A Sema4A; source: prepared by GenScript) GGGQGPMPRVRYYAGDERRALSFFHQKGLQDFDTLLLSGDGNTLYVGAREAILALDIQDPGVPRLKNMIPWPASDRKKSECAFKKKSNETQCFNFIRVLVSYNVTHLYTCGTFAFSPACTFIELQDSYLLPISEDKVMEGKGQSPFDPAHKHTAVLVDGMLYSGTANNFLGSEPILMRTLGSQPVLKTDNFLRWLHHDASFVAAIPSTQVVYFFFEETASEFDFFERLHTSRVARVCKNDVGGEKLLQKKWTTFLKAQLLCTQPGQLPFNVIRHAVLLPADSPTAPHIYAVFTSQWQVGGTRSSAVCAFSLLDIERVFKGKYKELNKETSRWTTYRGPETNPRPGSCSVGPSSDKALTFMKDHFLMDEQVVGTPLLVKSGVEYTRLAVETAQGLDGHSHLVMYLGTTTGSLHKAVVSGDSSAHLVEEIQLFPDPEPVRNLQLAPTQGAVFVGFSGGVWRVPRANCSVYESCVDCVLARDPHCAWDPESRTCCLLSAPNLNSWKQDMERGNPEWACASGPMSRSLRPQSRPQIIKEVLAVPNSILELPCPHLSALASYYWSHGPAAVPEASSTVYNGSLLLIVQDGVGGLYQCWATENGFSYPVISYWVDSQDQTLALDPELAGIPREHVKVPLTRVSGGAALAAQQSYWPH | –
0.0035 | 0.00282 | F223A rhSema4A-Fc (Fc fusion, human, UniProt Q9H3S1 33-683, looked up, Semaphorin 4A, human; as the WT Sema4A-Fc of GenScript with F223A; Similar molecular size as the WT Sema4A-Fc protein prepared similarly; also called Sema4A-F223A; Mu F223A Sema4A; source: prepared by GenScript) GGGQGPMPRVRYYAGDERRALSFFHQKGLQDFDTLLLSGDGNTLYVGAREAILALDIQDPGVPRLKNMIPWPASDRKKSECAFKKKSNETQCFNFIRVLVSYNVTHLYTCGTFAFSPACTFIELQDSYLLPISEDKVMEGKGQSPFDPAHKHTAVLVDGMLYSGTMNNFLGSEPILMRTLGSQPVLKTDNALRWLHHDASFVAAIPSTQVVYFFFEETASEFDFFERLHTSRVARVCKNDVGGEKLLQKKWTTFLKAQLLCTQPGQLPFNVIRHAVLLPADSPTAPHIYAVFTSQWQVGGTRSSAVCAFSLLDIERVFKGKYKELNKETSRWTTYRGPETNPRPGSCSVGPSSDKALTFMKDHFLMDEQVVGTPLLVKSGVEYTRLAVETAQGLDGHSHLVMYLGTTTGSLHKAVVSGDSSAHLVEEIQLFPDPEPVRNLQLAPTQGAVFVGFSGGVWRVPRANCSVYESCVDCVLARDPHCAWDPESRTCCLLSAPNLNSWKQDMERGNPEWACASGPMSRSLRPQSRPQIIKEVLAVPNSILELPCPHLSALASYYWSHGPAAVPEASSTVYNGSLLLIVQDGVGGLYQCWATENGFSYPVISYWVDSQDQTLALDPELAGIPREHVKVPLTRVSGGAALAAQQSYWPH | –
– | – | recombinant human Plexin B1 with a 6X His tag at C-terminus (receptor) LQPLPPTAFTPNGTYLQHLARDPTSGTLYLGATNFLFQLSPGLQLEATVSTGPVLDSRDCLPPVMPDECPQAQPTNNPNQLLLVSPGALVVCGSVHQGVCEQRRLGQLEQLLLRPERPGDTQYVAANDPAVSTVGLVAQGLAGEPLLFVGRGYTSRGVGGGIPPITTRALWPPDPQAAFSYEETAKLAVGRLSEYSHHFVSAFARGASAYFLFLRRDLQAQSRAFRAYVSRVCLRDQHYYSYVELPLACEGGRYGLIQAAAVATSREVAHGEVLFAAFSSAAPPTVGRPPSAAAGASGASALCAFPLDEVDRLANRTRDACYTREGRAEDGTEVAYIEYDVNSDCAQLPVDTLDAYPCGSDHTPSPMASRVPLEATPILEWPGIQLTAVAVTMEDGHTIAFLGDSQGQLHRVYLGPGSDGHPYSTQSIQQGSAVSRDLTFDGTFEHLYVMTQSTLLKVPVASCAQHLDCASCLAHRDPYCGWCVLLGRCSRRSECSRGQGPEQWLWSFQPELGCLQVAAMSPANISREETREVFLSVPDLPPLWPGESYSCHFGEHQSPALLTGSGVMCPSPDPSEAPVLPRGADYVSVSVELRFGAVVIAKTSLSFYDCVAVTELRPSAQCQACVSSRWGCNWCVWQHLCTHKASCDAGPMVASHQSPLVSPDPPARGGPSPSPPTAPKALATPAPDTLPVEPGAPSTATASDISPGASPSLLSPWGPWAGSGSISSPGSTGSPLHEEPSPPSPQNGPGTAVPAPTDFRPSATPEDLLASPLSPSEVAAVPPADPGPEALHPTVPLDLPPATVPATTFPGAMGSVKPALDWLTREGGELPEADEWTGGDAPAFSTSTLLSGDGDSAELEGPPAPLILPSSLDYQYDTPGLWELEEATLGASSCPCVESVQGSTLMPVHVEREIRLLGRNLHLFQDGPGDNECVMELEGLEVVVEARVECEPPPDTQCHVTCQQHQLSYEALQPELRVGLFLRRAGRLRVDSAEGLHVVLYDCSVGHGDCSRCQTAMPQYGCVWCEGERPRCVTREACGEAEAVATQCPAPLIHSVEPLTGPVDGGTRVTIRGSNLGQHVQDVLGMVTVAGVPCAVDAQEYEVSSSLVCITGASGEEVAGATAVEVPGRGRGVSEHDFAYQDPKVHSIFPARGPRAGGTRLTLNGSKLLTGRLEDIRVVVGDQPCHLLPEQQSEQLRCETSPRPTPATLPVAVWFGATERRLQRGQFKYTLDPNITSAGPTKSFLSGGREICVRGQNLDVVQTPRIRVTVVSRMLQPSQGLGRRRRVVPETACSLGPSCSSQQFEEPCHVNSSQLITCRTPALPGLPEDPWVRVEFILDNLVFDFATLNPTPFSYEADPTLQPLNPEDPTMPFRHKPGSVFSVEGENLDLAMSKEEVVAMIGDGPCVVKTLTRHHLYCEPPVEQPLPRHHALREAPDSLPEFTVQMGNLRFSLGHVQYDGESPGAFPVAAQ | Kd [6]: 0.0354 µM

Reference: paper PMC8953949, “Identifying Function Determining Residues in Neuroimmune Semaphorin 4A” (International Journal of Molecular Sciences, 2022)
